Where two headings read alike, the source gives them in different places. One block for each binder: values may come before it.
Key:
human serum albumin = biological target: T1, human serum albumin (human, UniProt P02768 25-609); assay: ELISA at fixed concentration
T1 construct: also called HSA

[1] = biological target: T2, recombinant human ROR1 (hROR1), construct not stated (human, UniProt Q01973 30-403, limits assumed); assay: SPR, hROR1 on chip
[2] = biological target: T2, recombinant human ROR1 (hROR1), …; assay: SPR, hROR1 on chip; remark: listed apart in the source
Protocol: (§1) Competition of binding studies were completed using SPR. […] FC2 was used as the reference channel. […] Binding kinetics were determined using QDat software.

[3] = biological target: T3, human ROR1-hFc fusion protein (extracellular domain) (human); assay: Octet or SPR, hROR1
T3 construct: Whole entry 'human ROR1-Fc (CHO)'; also called hROR1; huROR1-Fc
Protocol: (§2) Binding kinetics were determined using a Pioneer Surface Plasmon Resonance (SPR) instrument (SensiQ/Pall ForteBio). […] VNARs and VNAR-Fc molecules were tested at various concentrations and the Ka (M⁻¹s⁻¹), Kd (s⁻¹) and KD (nM) values were determined using QDat software (SensiQ/Pall ForteBio).
Binding kinetics were determined using a SPR (as previously described) or using Biolayer interferometry (K2 Octet instrument/Pall ForteBio). […] VNARs and VNAR-Fc molecules were tested at various concentrations and the Ka (M−1s−1), Kd (s−1) and KD (nM) values were determined using the Octet data analysis HT software (Pall ForteBio).

[4] = biological target: T3, human ROR1-hFc fusion protein …; assay: SPR, ROR1-hFc on chip
Protocol: as §2

[5] = biological target: T3, human ROR1-hFc fusion protein …; assay: SPR, ROR1-hFc on chip; remark: listed apart in the source
Protocol: as §2

[6] = biological target: T4, rat ROR1-Fc fusion protein (rat); assay: SPR, rat ROR1 on chip
T4 construct: Whole entry 'rat ROR1-Fc (CHO)'; also called rROR1
Protocol: as §2

[7] = biological target: T3, human ROR1-hFc fusion protein …; assay: SPR, ROR1-hFc on chip; remark: listed apart in the source
Protocol: as §2
(§3) The ability of the VNAR-MMAE conjugates and VNAR-fluorescein conjugates to bind to human ROR1 ECD was determined by SPR using the procedures described above.

[8] = biological target: T5, human ROR2-hFc fusion protein (extracellular domain) (human); assay: SPR, ROR2-hFc on chip
T5 construct: Whole entry 'human ROR2-Fc (CHO)'; also called hROR2
Protocol: as §2, §3

[9] = biological target: T6, mouse ROR1-Fc fusion protein (mouse); assay: SPR, mouse ROR1 on chip
T6 construct: Whole entry 'mouse ROR1-Fc (CHO)'; also called mROR1
Protocol: as §2

[10] = biological target: T3, human ROR1-hFc fusion protein …; assay: SPR, human ROR1 ECD-Fc on chip;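 further: SPR binding kinetics of VNAR and VNAR-Fc molecules run at a range of concentrations over immobilised target, rate and affinity constants fitted with QDat software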
Protocol: as §2
Thermal stability assays used Applied Biosystems StepOne Real Time PCR system with the Protein Thermal Shift™ dye kit (Thermo). The assay mix was set up so that the protein was at a final concentration of 20 OA in 20 μL. 5 μL of Thermal Shift™ buffer was added alongside 2.5 uL 8× Thermal Shift™ Dye. Assays were run using the StepOne software and data analysed using Protein Thermal Shift™ software. All data are from first derivative analysis.

[11] = biological target: T7, human ROR1 on the surface of ROR1hi human cancer cell lines (human, UniProt Q01973 30-937); assay: flow cytometry, A549 (ROR1hi) cells, 4°C
T7 construct: whole, on cells; Cell line is named under assay; also called cell surface ROR1

[12] = biological target: T2, recombinant human ROR1 (hROR1), …; assay: SPR, hROR1 on chip with competitor B1 pre-captured
Protocol: as §1

[13] = biological target: T2, recombinant human ROR1 (hROR1), …; assay: SPR, hROR1 on chip with competitor P3A1 dimer pre-captured
Protocol: as §1

[14] = biological target: T3, human ROR1-hFc fusion protein …; assay: SPR, ROR1-hFc on chip; remark: listed apart in the source
Protocol: as §2
(§4) Using the procedures outlined above the binding of VNAR-Fc fusions to human, mouse and rat ROR1 and human ROR2 were determined by SPR.

[15] = biological target: T5, human ROR2-hFc fusion protein …; assay: SPR, ROR2-hFc on chip; remark: listed apart in the source
Protocol: as §2, §4

T3 sequence (chain, as listed by the source limits assumed): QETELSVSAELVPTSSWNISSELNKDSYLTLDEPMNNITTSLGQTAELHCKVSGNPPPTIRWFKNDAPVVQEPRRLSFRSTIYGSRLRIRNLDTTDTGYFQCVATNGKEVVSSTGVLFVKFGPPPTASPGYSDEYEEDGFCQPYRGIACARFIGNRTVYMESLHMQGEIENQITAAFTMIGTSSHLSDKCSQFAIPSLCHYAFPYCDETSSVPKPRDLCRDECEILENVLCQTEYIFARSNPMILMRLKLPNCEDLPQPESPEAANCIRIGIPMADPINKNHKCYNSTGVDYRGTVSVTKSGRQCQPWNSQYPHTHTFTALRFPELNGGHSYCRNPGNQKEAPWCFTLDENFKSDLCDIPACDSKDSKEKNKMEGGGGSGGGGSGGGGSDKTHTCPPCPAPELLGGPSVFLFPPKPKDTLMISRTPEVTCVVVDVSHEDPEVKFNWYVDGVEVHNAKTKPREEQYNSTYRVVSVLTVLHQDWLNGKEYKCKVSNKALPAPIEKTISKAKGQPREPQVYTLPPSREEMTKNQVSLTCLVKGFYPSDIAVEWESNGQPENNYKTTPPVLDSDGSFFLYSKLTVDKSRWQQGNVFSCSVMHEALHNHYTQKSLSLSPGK
T6 sequence (chain, as listed by the source limits assumed): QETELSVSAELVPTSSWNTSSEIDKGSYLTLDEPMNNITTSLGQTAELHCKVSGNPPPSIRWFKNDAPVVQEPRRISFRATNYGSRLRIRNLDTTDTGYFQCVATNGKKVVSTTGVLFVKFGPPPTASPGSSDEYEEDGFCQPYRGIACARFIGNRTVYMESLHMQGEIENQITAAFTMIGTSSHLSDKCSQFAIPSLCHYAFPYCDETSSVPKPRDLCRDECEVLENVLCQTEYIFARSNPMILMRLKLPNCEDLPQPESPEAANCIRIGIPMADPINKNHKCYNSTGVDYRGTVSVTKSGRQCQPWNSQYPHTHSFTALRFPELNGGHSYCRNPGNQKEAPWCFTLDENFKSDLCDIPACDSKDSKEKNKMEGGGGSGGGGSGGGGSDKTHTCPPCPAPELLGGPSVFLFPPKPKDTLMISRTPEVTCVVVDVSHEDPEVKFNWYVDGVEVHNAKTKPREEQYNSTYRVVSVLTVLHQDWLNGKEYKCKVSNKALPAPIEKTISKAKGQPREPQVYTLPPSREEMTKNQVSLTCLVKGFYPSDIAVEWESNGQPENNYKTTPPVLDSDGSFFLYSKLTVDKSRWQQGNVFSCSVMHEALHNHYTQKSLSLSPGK
T4 sequence (chain, as listed by the source limits assumed): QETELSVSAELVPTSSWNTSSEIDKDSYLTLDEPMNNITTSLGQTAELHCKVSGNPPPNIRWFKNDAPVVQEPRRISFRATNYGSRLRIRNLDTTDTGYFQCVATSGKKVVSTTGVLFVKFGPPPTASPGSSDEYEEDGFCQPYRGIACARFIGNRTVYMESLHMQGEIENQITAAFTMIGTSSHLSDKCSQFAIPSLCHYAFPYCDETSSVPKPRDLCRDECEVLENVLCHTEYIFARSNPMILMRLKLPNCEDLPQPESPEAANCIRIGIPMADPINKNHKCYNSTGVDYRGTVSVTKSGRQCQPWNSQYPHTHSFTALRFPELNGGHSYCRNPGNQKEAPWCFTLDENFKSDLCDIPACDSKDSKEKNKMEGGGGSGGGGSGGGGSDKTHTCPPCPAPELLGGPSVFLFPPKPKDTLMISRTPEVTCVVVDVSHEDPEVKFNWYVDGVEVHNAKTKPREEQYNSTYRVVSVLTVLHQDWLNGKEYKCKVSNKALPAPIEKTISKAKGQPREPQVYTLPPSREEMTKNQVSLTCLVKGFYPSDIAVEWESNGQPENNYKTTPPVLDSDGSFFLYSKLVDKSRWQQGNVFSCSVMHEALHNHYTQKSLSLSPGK
T5 sequence (chain, as listed by the source limits assumed): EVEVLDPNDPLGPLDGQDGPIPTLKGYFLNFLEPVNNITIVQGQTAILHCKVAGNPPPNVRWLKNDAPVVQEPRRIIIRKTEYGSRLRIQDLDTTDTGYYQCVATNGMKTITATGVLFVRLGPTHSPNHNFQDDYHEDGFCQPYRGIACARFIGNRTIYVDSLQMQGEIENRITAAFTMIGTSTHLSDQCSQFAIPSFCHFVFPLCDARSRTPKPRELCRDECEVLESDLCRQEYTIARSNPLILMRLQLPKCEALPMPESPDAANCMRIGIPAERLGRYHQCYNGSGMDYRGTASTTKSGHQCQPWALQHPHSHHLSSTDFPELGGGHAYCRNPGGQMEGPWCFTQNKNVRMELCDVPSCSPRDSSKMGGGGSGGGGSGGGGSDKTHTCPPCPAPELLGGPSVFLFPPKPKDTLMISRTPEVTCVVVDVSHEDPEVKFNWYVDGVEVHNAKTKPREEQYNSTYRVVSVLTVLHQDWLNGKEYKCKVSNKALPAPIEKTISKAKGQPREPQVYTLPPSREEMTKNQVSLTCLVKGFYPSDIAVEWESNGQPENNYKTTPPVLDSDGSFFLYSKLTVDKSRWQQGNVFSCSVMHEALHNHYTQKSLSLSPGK

binding result (human serum albumin): binds
B1: BA11-2V HisMyc (VNAR)
chain: TRVDQSPSSLSASVGDRVTITCVLTDTSYPLYSTYWYRKNPGSSNKEQISISGRYSESVNKGTKSFTLTISSLQPEDSATYYCRAMSTNIWTGDGAGTKVEIKGGGGSGGGGSGGGGSGGGGSGGGGSTRVDQTPRTATKETGESLTINCVLTDTSYGLYSTSWFRKNPGTTDWERMSIGGRYVESVNKGAKSFSLRIKDLTVADSATYYCKAQSLAISTRSYWYDGAGTVLTVNQASGAHHHHHHGAEFEQKLISEEDL

Kd [1]: 0.385 nM | koff [1]: 0.000628 s⁻¹ | kon [1]: 1.63e+06 M⁻¹ s⁻¹ | Kd [2]: 0.538 nM | koff [2]: 0.00141 s⁻¹ | kon [2]: 2.62e+06 M⁻¹ s⁻¹ | Kd [3]: 0.3 nM | Kd [4]: 0.35 nM | koff [4]: 0.000637 s⁻¹ | kon [4]: 2.08e+06 M⁻¹ s⁻¹ | Kd [5]: 0.3 nM | koff [5]: 0.00112 s⁻¹ | kon [5]: 4.9e+06 M⁻¹ s⁻¹ | Kd [6]: 0.57 nM | koff [6]: 0.00173 s⁻¹ | kon [6]: 3.18e+06 M⁻¹ s⁻¹ | Kd [7]: 1.61 nM | koff [7]: 0.00296 s⁻¹ | kon [7]: 1.86e+06 M⁻¹ s⁻¹ | binding result [8]: no binding | Kd [9]: 0.396 nM | koff [9]: 0.00145 s⁻¹ | kon [9]: 4.17e+06 M⁻¹ s⁻¹ | Kd [10]: 0.3 nM | koff [10]: 0.00117 s⁻¹ | kon [10]: 3.78e+06 M⁻¹ s⁻¹ | Median YL1-PE [11]: 2340 | koff [12]: 0.000536 s⁻¹ | kon [12]: 1.52e+06 M⁻¹ s⁻¹ | Kd [13]: 3.08 nM | koff [13]: 0.00226 s⁻¹ | kon [13]: 734000 M⁻¹ s⁻¹
B2: P3A1-[G4S]5-P3A1 his myc (VNAR)
chain: TRVDQTPRTATKETGESLTINCVLTDTSYGLYSTSWFRKNPGTTDWERMSIGGRYVESVNKGAKSFSLRIKDLTVADSATYYCKAREARHPWLRQWYDGAGTVLTVNGGGGSGGGGSGGGGSGGGGSGGGGSTRVDQTPRTATKETGESLTINCVLTDTSYGLYSTSWFRKNPGTTDWERMSIGGRYVESVNKGAKSFSLRIKDLTVADSATYYCKAREARHPWLRQWYDGAGTVLTVNQASGAHHHHHHGAEFEQKLISEEDL
notes: VNAR homodimer by genetic fusion; also called P3A1-P3A1; P3A1 dimer

binding result [14]: no binding | binding result [15]: no binding
B3: 2V mFc (Fc fusion)
chain: TRVDQTPRTATKETGESLTINCVLTDTSYGLYSTSWFRKNPGTTDWERMSIGGRYVESVNKGAKSFSLRIKDLTVADSATYYCKAQSLAISTRSYWYDGAGTVLTVNGGGGSGGGGSGGGGSEPRGPTIKPCPPCKCPAPNLLGGPSVFIFPPKIKDVLMISLSPIVTCVVVDVSEDDPDVQISWFVNNVEVHTAQTQTHREDYNSTLRVVSALPIQHQDWMSGKEFKCKVNNKDLPAPIERTISKPKGSVRAPQVYVLPPPEEEMTKKQVTLTCMVTDFMPEDIYVEWTNNGKTELNYKNTEPVLDSDGSYFMYSKLRVEKKNWVERNSYSCSVVHEGLHNHHTTKSFSRTPGK
notes: control

Source: patent publication US20230203155A1 (ALMAC DISCOVERY, published 2023)
